In the supplement of paper PMC10567573:

B1: ESRRA (parent)
chain: SLPLQDELAFAEDLVLDEEGARAA

Variants of: B1
Experiment: protein stability index of a GFP-peptide fusion (GPS, HEK-293T) (PSI 1-6); higher = more stable
Details: c terminus: a fixed tail appended
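Also: lentivirally expressed fusions sorted by FACS into six bins by GFP to DsRed ratio, PSI derived from sequencing read proportions per bin multiplied by bin number.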

Row | Variant | protein stability index
1 | SLPLQDELMFAEDLVLDEEGARAA | 3.2
2 | SLPLQDELYFAEDLVLDEEGARAA | 4.19
3 | SLPLQDELQFAEDLVLDEEGARAA | 3.61
4 | SLPLQDELPFAEDLVLDEEGARAA | 5.74
5 | SLPLQDELSFAEDLVLDEEGARAA | 3.42
6 | SLPLQDELAFAEVLVLDEEGARAA | 1.85
7 | SLPLQDELAFAEALVLDEEGARAA | 3.48
8 | SLPLQDELAFAENLVLDEEGARAA | 2.79
9 | SLPLQDELAFAEQLVLDEEGARAA | 3.68
10 | SLPLQDELAFAECLVLDEEGARAA | 2.31
11 | SLPLQDELAFAERLVLDEEGARAA | 3.68
12 | SLPLQDELAFAEFLVLDEEGARAA | 3.31
13 | SLPLQDELAFAETLVLDEEGARAA | 3.71
14 | SLPLQDELAFAEPLVLDEEGARAA | 5.46
15 | SLPLQDELAFAEMLVLDEEGARAA | 3.83
16 | SLPLQDELAFAEWLVLDEEGARAA | 3.31
17 | SLPLQDELAFAEGLVLDEEGARAA | 2.44
18 | SLPLQDELAFAEKLVLDEEGARAA | 3.81
19 | SLPLQDELAFAEILVLDEEGARAA | 1.96
20 | SLPLQDELAFAEELVLDEEGARAA | 2.92
21 | SLPLQDELAFAESLVLDEEGARAA | 3.37
22 | SLPLQDELAFAEHLVLDEEGARAA | 2.98
23 | SLPLQDELAFAEYLVLDEEGARAA | 2.64
24 | SLPLQDELAFAELLVLDEEGARAA | 2.68

Row | Variant | protein stability index
25 | SLPLQDELAFAEDMVLDEEGARAA | 3.29
26 | SLPLQDELAFAEDHVLDEEGARAA | 5.42
27 | SLPLQDELAFAEDTVLDEEGARAA | 5.13
28 | SLPLQDELAFAEDYVLDEEGARAA | 5.32
29 | SLPLQDELAFAEDKVLDEEGARAA | 4.89
30 | SLPLQDELAFAEDVVLDEEGARAA | 4.41
31 | SLPLQDELAFAEDGVLDEEGARAA | 5.57
32 | SLPLQDELAFAEDNVLDEEGARAA | 5.38
33 | SLPLQDELAFAEDFVLDEEGARAA | 5.22
34 | SLPLQDELAFAEDRVLDEEGARAA | 4.2
35 | SLPLQDELAFAEDQVLDEEGARAA | 3.5
36 | SLPLQDELAFAEDAVLDEEGARAA | 4.45
37 | SLPLQDELAFAEDPVLDEEGARAA | 5.8
38 | SLPLQDELAFAEDIVLDEEGARAA | 4.3
39 | SLPLQDELAFAEDCVLDEEGARAA | 3.46
40 | SLPLQDELAFAEDEVLDEEGARAA | 4.62
41 | SLPLQDELAFAEDSVLDEEGARAA | 4.7
42 | SLPLQDELAFAEDWVLDEEGARAA | 4.92
43 | SLPLQDELAFAEDDVLDEEGARAA | 5.5
44 | SLPLQDELAFARDLVLDEEGARAA | 4.36
45 | SLPLQDELAFADDLVLDEEGARAA | 5.35
46 | SLPLQDELAFAYDLVLDEEGARAA | 4.2
47 | SLPLQDELAFAKDLVLDEEGARAA | 5.28
48 | SLPLQDELAFALDLVLDEEGARAA | 4.42

Row | Variant | protein stability index
49 | SLPLQDELAFAADLVLDEEGARAA | 5
50 | SLPLQDELAFAIDLVLDEEGARAA | 3.8
51 | SLPLQDELAFAWDLVLDEEGARAA | 5.05
52 | SLPLQDELAFAPDLVLDEEGARAA | 5.03
53 | SLPLQDELAFACDLVLDEEGARAA | 5.04
54 | SLPLQDELAFAQDLVLDEEGARAA | 4.71
55 | SLPLQDELAFASDLVLDEEGARAA | 5.26
56 | SLPLQDELAFAFDLVLDEEGARAA | 4.52
57 | SLPLQDELAFAMDLVLDEEGARAA | 4.88
58 | SLPLQDELAFANDLVLDEEGARAA | 5.53
59 | SLPLQDELAFAHDLVLDEEGARAA | 4.72
60 | SLPLQDELAFATDLVLDEEGARAA | 5.41
61 | SLPLQDELAFAGDLVLDEEGARAA | 4.91
62 | SLPLQDELAFAVDLVLDEEGARAA | 4.82
63 | SLPLQPELAFAEDLVLDEEGARAA | 4.04
64 | SLPLQHELAFAEDLVLDEEGARAA | 2.45
65 | SLPLQWELAFAEDLVLDEEGARAA | 2.78
66 | SLPLQAELAFAEDLVLDEEGARAA | 3.27
67 | SLPLQRELAFAEDLVLDEEGARAA | 2.65
68 | SLPLQSELAFAEDLVLDEEGARAA | 3.25
69 | SLPLQKELAFAEDLVLDEEGARAA | 2.81
70 | SLPLQQELAFAEDLVLDEEGARAA | 2.91
71 | SLPLQTELAFAEDLVLDEEGARAA | 2.89
72 | SLPLQVELAFAEDLVLDEEGARAA | 2.5

Row | Variant | protein stability index
73 | SLPLQLELAFAEDLVLDEEGARAA | 3.26
74 | SLPLQEELAFAEDLVLDEEGARAA | 2.67
75 | SLPLQMELAFAEDLVLDEEGARAA | 3.77
76 | SLPLQNELAFAEDLVLDEEGARAA | 2.92
77 | SLPLQGELAFAEDLVLDEEGARAA | 3.37
78 | SLPLQIELAFAEDLVLDEEGARAA | 2.26
79 | SLPLQYELAFAEDLVLDEEGARAA | 2.02
80 | SLPLQFELAFAEDLVLDEEGARAA | 2.73
81 | SLPLQCELAFAEDLVLDEEGARAA | 2.42
82 | SLPLQDELAFAEDLMLDEEGARAA | 4.79
83 | SLPLQDELAFAEDLFLDEEGARAA | 5.55
84 | SLPLQDELAFAEDLGLDEEGARAA | 5.55
85 | SLPLQDELAFAEDLPLDEEGARAA | 5.37
86 | SLPLQDELAFAEDLDLDEEGARAA | 4.89
87 | SLPLQDELAFAEDLCLDEEGARAA | 4.28
88 | SLPLQDELAFAEDLHLDEEGARAA | 5.45
89 | SLPLQDELAFAEDLILDEEGARAA | 3.18
90 | SLPLQDELAFAEDLLLDEEGARAA | 3.92
91 | SLPLQDELAFAEDLNLDEEGARAA | 5.68
92 | SLPLQDELAFAEDLELDEEGARAA | 5.82
93 | SLPLQDELAFAEDLALDEEGARAA | 4.6
94 | SLPLQDELAFAEDLKLDEEGARAA | 5.57
